The values that follow come from patent publication US20160237156A1.

Experiment [1] concerns the target CXCR4 (human) (UniProt P61073). The experiment is described as follows: cell-based or functional assay.
The target of experiment [2] is CXCR4 (human) (UniProt P61073). The experiment is described as follows: flow cytometry on CXCR4 transfected CHO cells, 1 µg/ml antibody.
Experiment [3] concerns the target SNAP-tag-CXCR4 (Tag-lite labeled CXCR4 cells, Cisbio Bioassays) (UniProt P61073). Nature of the experiment: Tag-lite HTRF competition with 50 nM fluorescent SDF-1, Cheng-Prusoff.
Experiment [4] shares this target. Nature of the experiment: Tag-lite HTRF competition with 50 nM fluorescent SDF-1 on Tag-lite labeled CXCR4 cells.
Experiment [5] concerns the target CXCR4 (human) (UniProt P61073). The experiment is described as follows: flow cytometry on Jurkat cells, competition with fluorescein conjugated 12G5 (66.6 nM) as competitor.

Chain of CXCR4 (human) (P61073 whole entry): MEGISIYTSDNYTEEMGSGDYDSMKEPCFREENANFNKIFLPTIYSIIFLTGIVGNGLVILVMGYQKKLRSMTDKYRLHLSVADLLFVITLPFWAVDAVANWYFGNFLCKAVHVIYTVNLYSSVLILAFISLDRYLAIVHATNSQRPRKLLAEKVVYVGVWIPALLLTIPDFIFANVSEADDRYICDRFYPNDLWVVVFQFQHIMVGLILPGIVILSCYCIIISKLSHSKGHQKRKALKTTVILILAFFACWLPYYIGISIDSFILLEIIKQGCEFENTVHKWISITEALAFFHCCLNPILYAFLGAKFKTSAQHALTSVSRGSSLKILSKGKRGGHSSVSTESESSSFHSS
Chain of SNAP-tag-CXCR4 (Tag-lite labeled CXCR4 cells, Cisbio Bioassays) (P61073 whole entry): as above

B1: BLV1H12-beta BCCX2 HC 1 IgG (antibody, V domains shown)
VH: QVQLRESGPSLVKPSQTLSLTCTASGFSLSDKAVGWVRQAPGKALEWLGSIDTGGNTGYNPGLKSRLSITKDNSKSQVSLSVSSVTTEDSATYYCTSVHQETKKYQSYRKCRGGRRWCYQKSYTYNYEWHVDVWGQGLLVTVSS
VL: QAVLNQPSSVSGSLGQRVSITCSGSSSNVGNGYVSWYQLIPGSAPRTLIYGDTSRASGVPDRFSGSRSGNTATLTISSLQAEDEADYFCASAEDSSSNAVFGSGTTLTVLG
B1 had an inhibition of SDF-1 induced migration of Ramos cells, EC50 in experiment [1] of 8.5 nM. The flow cytometry peak shift in experiment [2] stood at 73.8%. The inhibition constant Ki in experiment [3] stood at 2.12 nM. Also, the IC50 came to 9.58 nM in experiment [4] and 39.3 nM in experiment [5].
